Source: the supplement of paper PMC7125110
± gives the standard error. This sample holds only a part of the variants without activity.

B1: glmS ribozyme (parent)
chain: AUAAAAGCGCCAGAACUACAGAAAUGUAGUUGACGAGGAGGAGGUUUAUCGAAUUUUCGGCGGAUGCCUCCAAA

What was measured:
Conditions in all cases: with glucosamine-6-phosphate
[1] = variants of: B1; assay: self-cleavage kobs at 160 uM GlcN6P; higher = faster cleavage; RNA array
Procedure, shortened: (§1)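 Weighted Michaelis–Menten fits across concentrations supplied kcat and KM, based on kobs from one- or two-exponential decay fits to normalised per-tile medians. The data came from barcoded ribozyme variants transcribed in situ by E. coli RNA polymerase on sequenced MiSeq chips and tracked at 37 °C by a hybridised Cy3 probe. Glucosamine-6-phosphate (40 μM to 10 mM) in HEPES/KCl/Mg(OAc)2 buffer was flowed in.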

[2] = variants of: B1; assay: self-cleavage kobs at 2500 uM GlcN6P; higher = faster cleavage; RNA array
Procedure, shortened: as §1

[3] = variants of: B1; assay: self-cleavage kobs at 10000 uM GlcN6P; higher = faster cleavage; RNA array
Procedure, shortened: as §1

[4] = variants of: B1; assay: self-cleavage kobs at 640 uM GlcN6P; higher = faster cleavage; RNA array
Procedure, shortened: as §1

| Variant | self-cleavage kobs at 160 uM GlcN6P [1] [s⁻¹] | self-cleavage kobs at 2500 uM GlcN6P [2] [s⁻¹] | self-cleavage kobs at 10000 uM GlcN6P [3] [s⁻¹] | self-cleavage kobs at 640 uM GlcN6P [4] [s⁻¹] |
| --- | --- | --- | --- | --- |
| AUAAAGGCGCCAGAACUACAGAAAUGUAGUUGACGAGGAGGAGGUUUAUCGAAUUUUCGGCGGAUGUCUCUAAA | < 1e-05 |  |  |  |
| AUAAAAAAGCCAGAACUACAGAAAUGUAGUUGACGAGGAGGAGGUUUAGCGAAUUUUCGGCGGAUGCCUCCAAA | < 1e-05 | < 1e-05 | < 1e-05 |  |
| AUAAAGGCGGCAGAACUACAGAAAUGUAGUUGACGAGGAGGAGGUGUAUCGAAUUUUCGGCGGAUGCCUCCAAA | < 1e-05 | < 1e-05 |  | < 1e-05 |
| AUAAAUGCGUCAGAACUACAGAAAUGUAGUUGACGAGGAGGAGGUUUAUCGAAUUUUCGGCGGAUGCCUCCAAA | < 1e-05 | < 1e-05 |  |  |
| AUAAAGGCGCCAGAACUACAGAAAUGUAGUUGACGAGGAGGAGGUUUAUCGAAUUUUCGGCGGGUGGCUCCAAA | < 1e-05 | < 1e-05 |  | < 1e-05 |
| AUAAAUGCGCCCGAACUACAGAAAUGUAGUUGACGAGGAGGAGGUUUAUCGAUUUUUCGGCGGAUGCCUCCAAA | < 1e-05 | 4.17e-05 ± 1.6e-05 |  | 3.14e-05 ± 1.3e-05 |
| AUAAAUGCGCCCGAACUACAGAAAUGUAGUUGACGAGGAGGAGGUUUACCGAAUUUUCGGCGGAGGGCUCCAAA | < 1e-05 |  |  |  |
| AUAAAUGCGCCAGAACUACAGAAAUGUAGUUGACGAGGAGGAUGUUUAUCGAAUUUACGGCGGAUGCCUCCAAA | < 1e-05 | < 1e-05 |  | < 1e-05 |
| AUAAAGGCGCCAGAACUACAGAAAUGUAGUUGACGAGGAGGAUGUUUAUCGAAUUUUCGGCGGACGCCUCCAAA | < 1e-05 | < 1e-05 |  | < 1e-05 |
| AUAAAUGCGACAGAACUACAGAAAUGUAGUUGACGAGGGCGAGGUUUAUCGAAUUUUCGGGGGAUGGCUCCAAA | < 1e-05 | < 1e-05 |  | < 1e-05 |
| AUAAAGACGCCAGAACUACAGAAAUGUAGUUGACGAGGAGGACGUUUAUCGAAUUUUCGGCGGAUGCCUCCAAA | < 1e-05 | < 1e-05 | < 1e-05 | < 1e-05 |
| AUAAAGGCGCCAGAACUACAGAAAUGUAGUUGACGAGGAGGCGGUUUAUCGAAUUUUCGGCGGAUGCCUCCAAA | < 1e-05 | < 1e-05 | < 1e-05 | < 1e-05 |
| AUAAAUGCGCAAUAACUACAGAAAUGUAGUUGACGAGGAGGAGGUUUAUCGAAUUUUCGGCGGAUGCCUCCAAA | < 1e-05 |  |  |  |
| AUAAAAACGCCAGAACUACAGAAAUGUAGUUGACGAGGAGGAGGUUUUUCGAAUUUUCGGCGGAUGCCUCUAAA | < 1e-05 | < 1e-05 |  | < 1e-05 |
| AUAAAGGCGCCAGAACUACAGAAAUGUAGUUGAGGAGGAGGAGGUUUAUCUAAUUUUCGGCGAAUGCCUCCAAA | < 1e-05 | < 1e-05 |  | < 1e-05 |
| AUAAAUGCGCCAGAACUACAGAAAUGUAAUUGACGAGGAGGAGGUUUAUCGAAGUUUCGGCGGAUGCCUCCAAA | < 1e-05 |  |  |  |

| Variant | self-cleavage kobs at 160 uM GlcN6P [1] [s⁻¹] | self-cleavage kobs at 2500 uM GlcN6P [2] [s⁻¹] | self-cleavage kobs at 10000 uM GlcN6P [3] [s⁻¹] | self-cleavage kobs at 640 uM GlcN6P [4] [s⁻¹] |
| --- | --- | --- | --- | --- |
| AUAAAAACGCCAGCACUACAGAAAUGUAGUUGACGCGGAGGAGGUUUAUCGAAUUUUCGGCGGUUGCCUCCAAA | < 1e-05 | < 1e-05 |  | < 1e-05 |
| AUAAAUGCGCCAGAACUACAGAAAUGUAGUUGAAGAGGAGGAGGUUUAUCGAAUUUUCGGCGCAUGCCUCCAAA | < 1e-05 | < 1e-05 |  | < 1e-05 |
| AUAAAAACGCCAGAACUACAGAAAUGUAGUUGACGGGGAGGAGGUUUAUCGAAUUUUCGGCGGAUGCCUCCAAA | < 1e-05 | < 1e-05 |  | < 1e-05 |
| AUAAAUGCGCCAGAACUACAGAAAUGUAGUUGACGAGGAGGAGUUUUAUCGAAUCUUCGGCGGAUGCCUCCAAA | < 1e-05 | < 1e-05 |  | < 1e-05 |
| AUAAAUGAGCCAGAAAUACAGAAAUGUAGUUGACGAGGAGGAGGUUUAUCGAAUUUUCGGCGGAUGCCUCCAAA | < 1e-05 |  |  |  |
| AUAAAGGCGCCAGAACUACAGAAAUGUAGGUGAGGAGGAGGAGGUUUAUCGAAUUUUCGGCGGAUGCCUCCAAA | < 1e-05 |  |  |  |
| AUAAAUGCGCCAGAACUACAGAAAUGUAGUUGACGACGAGGAGGUUUAUCGAAUUUUCGGCGGAUGCCUCUAAA | < 1e-05 |  |  |  |
| AUAAAGGCGCCAGAACUACAGAAAUGUAGUUGACGAGGAGGAGGUUUAUCGACUUUUCGGCGAGUGCCUCCAAA | < 1e-05 |  |  | < 1e-05 |
| AUAAAAACGCCAGAACUACAGAAAUGUAGUUGACGAGGAGGAGGUUUAUAAAAUUUUCGGCGGAUGCCUCCAAA | < 1e-05 | < 1e-05 |  | < 1e-05 |
| AUAAAUUCGCCAGAACUACAGAAAUGUAGUUGACUAGGAGGAGGUUUAUCGAAAUUUCGGCGGAUGCCUCCAAA | < 1e-05 | < 1e-05 |  | < 1e-05 |
| AUAAAUGCGCCAGAACUACAGAAAUGUAGUUGACUAGGAGGCGGUUUAUCGAAUUUUCGGCGGAUGCCUCCAAA | < 1e-05 |  |  | < 1e-05 |
| AUAAAAACGCCAGAACUACAGAAAUGUAGUUGCCGAGGAGGCGGUUUCUCGAAUUUUCGGCGGAUGCCUCCAAA | < 1e-05 | < 1e-05 |  |  |
| AUAAAUGCGCCAGAACUACAGAAAUGUAGUUGACGAGGAGGACGUUUAUCGAAUUUGCGGCGGAUGUCUCCAAA | < 1e-05 | < 1e-05 | < 1e-05 |  |
| AUAAAUGCGCCAGGUCUACAGAAAUGUAGUGGACGAGGAGGAGGUUUAUCGAAUGUUCGGCGGAUGCCUCCAAA | < 1e-05 | < 1e-05 |  | < 1e-05 |
| AUAAAGGCGCCAGAAUUACAGAAAUGUAGUUGACGAGGCGGAGGUUUAUCGAAUUUUCGGCGGAUGCCUCCAAA | < 1e-05 |  | 6.06e-05 ± 9e-06 |  |
